This assay concerns the target T1, recombinant GST-EGFL7 protein (UniProt Q9UHF1 24-273).
T1 construct: Expressed in Sf21 insect cells by baculovirus and purified on glutathione-agarose; The sense primer encodes MRGSQEV, which fits human EGFL7; also called purified EGFL7 protein; recombinant EGFL7; not shown: glutathione-S-transferase (GST) tag from the pDEST20 plasmid (Invitrogen); TEV site/linker region carried over from pENTR/TEV/D-TOPO
T1 sequence (looked up): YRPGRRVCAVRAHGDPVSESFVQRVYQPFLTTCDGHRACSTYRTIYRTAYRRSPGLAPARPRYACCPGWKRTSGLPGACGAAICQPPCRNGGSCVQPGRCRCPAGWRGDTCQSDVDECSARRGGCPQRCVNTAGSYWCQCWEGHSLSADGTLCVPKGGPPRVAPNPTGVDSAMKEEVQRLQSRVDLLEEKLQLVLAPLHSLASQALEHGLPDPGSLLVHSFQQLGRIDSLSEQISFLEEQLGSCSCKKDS
Briefly: SPR imaging (GWC); peptide immobilised on gold spots, purified EGFL7 protein in solution; fit with 'association then dissociation' in GraphPad Prism. The protocol: Peptides were immobilized onto gold spots using standard protocols from the GWC manual. Peptides were then exposed to 500 μL of purified EGFL7 protein. The % change in reflectivity (% R) for each of the spots containing the peptides was collected using V++ Precision Digital Imaging Systems, version 5.0 software and the dissociation constants (KD) were calculated using the ‘association then dissociation’ equation in GraphPad Prism, version 5.0.

B1: GSLLVHSFQQLG (peptide)
peptide: GSLLVHSFQQLG
notes: Immobilised on gold spots for the SPR imaging study; also called LCE71; LCE77
Usually Kd stands for the constant that tells how readily two partners part at equilibrium. In the case of B1, the Kd was 14.7 nM.

For the origin of these results see patent publication US20150071855A1 (LONDON HEALTH SCIENCES CENTRE RESEARCHING, published 2015).
